Data: US20260373285 (published 2026)
Read-outs that look alike come from different tables or passages of the source.

Key:
[1] = target: T1, human PD-L1 full length (on CHO cells) (human, UniProt Q9NZQ7); assay: competition FACS vs PD-1
hPD-L1(ECD)-His [2] = target: T2, hPD-L1(ECD)-His (human, UniProt Q9NZQ7); assay: ELISA
cPD-L1(ECD)-His = cPD-L1(ECD)-His (cynomolgus); assay: ELISA
[3] = target: T1, human PD-L1 full length (on CHO cells); assay: competition FACS vs CD80
[4] = target: T1, human PD-L1 full length (on CHO cells); assay: FACS
hPD-L1(ECD)-His [5] = target: T2, hPD-L1(ECD)-His; assay: SPR
hPD-L1(ECD)-His [6] = target: T2, hPD-L1(ECD)-His; assay: SPR; remark: listed apart in the source
hPD-L1(ECD)-His [7] = target: T2, hPD-L1(ECD)-His; assay: SPR supernatant
human Trop-2 (His) [8] = target: T3, human Trop-2 (His) (human, UniProt P09758); assay: ELISA
T3 chain: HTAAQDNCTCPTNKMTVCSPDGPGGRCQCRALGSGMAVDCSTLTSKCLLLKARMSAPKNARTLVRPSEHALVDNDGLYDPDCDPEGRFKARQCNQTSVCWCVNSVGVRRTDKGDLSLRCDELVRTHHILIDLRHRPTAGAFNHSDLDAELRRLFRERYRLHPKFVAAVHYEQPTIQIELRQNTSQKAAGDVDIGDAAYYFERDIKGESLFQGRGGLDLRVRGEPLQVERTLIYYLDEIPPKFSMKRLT

human Trop-2 (His) [9] = target: T3, human Trop-2 (His); assay: SPR
human Trop-2 (His) [10] = target: T3, human Trop-2 (His); assay: SPR
human Trop-2 (His) [11] = target: T3, human Trop-2 (His); assay: SPR
[12] = target: T4, human Trop-2 on MDA-MB-468 cells (human, UniProt P09758); assay: FACS
T4 chain: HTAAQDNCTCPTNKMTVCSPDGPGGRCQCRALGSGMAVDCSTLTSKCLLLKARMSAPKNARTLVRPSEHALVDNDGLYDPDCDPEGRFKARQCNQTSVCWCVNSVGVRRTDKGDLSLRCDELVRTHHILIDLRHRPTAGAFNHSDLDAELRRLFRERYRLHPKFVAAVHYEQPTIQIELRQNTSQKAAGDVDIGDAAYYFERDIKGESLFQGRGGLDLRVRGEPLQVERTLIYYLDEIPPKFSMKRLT

human Trop-2 (His) [13] = target: T3, human Trop-2 (His); assay: SPR
human Trop-2 (His) [14] = target: T3, human Trop-2 (His); assay: SPR
hPD-L1(ECD)-His [15] = target: T2, hPD-L1(ECD)-His; assay: SPR; remark: listed apart in the source
hPD-L1(ECD)-His [16] = target: T2, hPD-L1(ECD)-His; assay: SPR; remark: listed apart in the source

T2 sequence (Q9NZQ7 19-238): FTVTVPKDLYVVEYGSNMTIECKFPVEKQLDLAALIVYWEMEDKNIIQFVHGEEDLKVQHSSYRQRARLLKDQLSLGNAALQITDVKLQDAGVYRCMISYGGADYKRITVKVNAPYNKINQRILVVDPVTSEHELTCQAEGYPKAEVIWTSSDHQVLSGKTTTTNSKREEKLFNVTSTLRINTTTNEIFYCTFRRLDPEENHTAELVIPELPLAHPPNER
T1 sequence (Q9NZQ7 19-238): as above
cPD-L1(ECD)-His (cynomolgus), sequence (chain, as listed by the source): as the sequence (Q9NZQ7 19-238) above, with A33T, A34S, S62N, R68Q, Q82R, F173L, T185A, T192I, H215L counted along it

B1: PD-L1-1.168.15 (antibody, V domains shown)
VH: EVQLQQSGAELVKPGASVKLSCTVSGFNIEDTYIYWVKQRPEQGLEWIGWIDPANYNTKYDPRFQDKATVTVDTSSNTAYMHLSSLTSEDTAVYYCARGLRLLMDYWGQGTSVTVSS
VL: DIVMTQSQKFMSSSVGDRVSITCKASQNVHTSLAWYQQRPGQSPKALIYLASNRHTGVPDRFTGSGSGTDFTLTISNVQSEDLADYFCLQHWNYPLTFGAGTKLELRR
- IC50 [1]: 3 nM
- EC50 (hPD-L1(ECD)-His [2]): 0.028 nM
- EC50 (cPD-L1(ECD)-His): 0.38 nM
- IC50 [3]: 2.07 nM
- EC50 [4]: 1.02 nM
- Kd (hPD-L1(ECD)-His [5]): 0.295 nM

B2: PD-L1-1.168.15-xIgG1K (antibody, V domains shown)
VH: EVQLQQSGAELVKPGASVKLSCTVSGFNIEDTYIYWVKQRPEQGLEWIGWIDPANYNTKYDPRFQDKATVTVDTSSNTAYMHLSSLTSEDTAVYYCARGLRLLMDYWGQGTSVTVSS
VL: DIVMTQSQKFMSSSVGDRVSITCKASQNVHTSLAWYQQRPGQSPKALIYLASNRHTGVPDRFTGSGSGTDFTLTISNVQSEDLADYFCLQHWNYPLTFGAGTKLELRR
- Kd (hPD-L1(ECD)-His [6]): 0.275 nM
- Kd (hPD-L1(ECD)-His [7]): 0.379 nM

B3: PD-L1-1.168.15-z11-uIgG1K (antibody)
chain 1: not shown
chain 2: DIQMTQSPSFLSASVGDRVTITCKASQNVHTSLAWYQQKPGKSPKALIYLASNRHTGVPSRFSGSGSGTEFTLTISSLQPEDFATYFCLQHWNYPLTFGQGTKLEIKRTVAAPSVFIFPPSDEQLKSGTASVVCLLNNFYPREAKVQWKVDNALQSGNSQESVTEQDSKDSTYSLSSTLTLSKADYEKHKVYACEVTHQGLSSPVTKSFNRGEC
- Kd (hPD-L1(ECD)-His [6]): 0.62 nM
- Kd (hPD-L1(ECD)-His [7]): 0.863 nM

B4: Trop-2-B-16 (antibody, V domains shown)
VH: EVQVVESGGGLVQPGGSLRLSCTAPERIFSIYNMGWYRQAPGKEREWVAFLMEGGRIEYADSVKGRFTISRDNAKSTVYLQMNNLNAEDAAVYYCNAGGRSGYWGKGTLVTVSS
- EC50 (human Trop-2 (His) [8]): 0.0166 µg/mL
- Kd (human Trop-2 (His) [9]): 5.21 nM

B5: ALGA105X Trop-2 arm (antibody, V domains shown)
V domain 1: EVQVVESGGGLVQPGGSLRLSCATSGYIFSNSGMGWYRQAPGKQRELVAAISSGGTTHYADSVKGRFTISRDNSKNTVYLQMNSLRAEDTAVYYCNGDRYYSGTDVFGSWGQGTLVTVSS
V domain 2: QVQLVQSGGGLVQPGGSLRLSCAASDRTFSEYNADWFRQAPGKEREFVAAITWSGKNTRYADSVKGRFTVSRDNSKNTVYLQMNSLRAEDTAVYYCATDRWWAAGNWDGVDYWGQGTLVTVSS
- Kd (human Trop-2 (His) [10]): 3.43 nM
- Kd (human Trop-2 (His) [11]): 3.43 nM

B6: ALGA105S Trop-2 arm (antibody, V domains shown)
V domain 1: EVQVVESGGGLVQPGGSLRLSCATSGYIFSNSGMGWYRQAPGKQRELVAAISSGGTTHYADSVKGRFTISRDNSKNTVYLQMNSLRAEDTAVYYCNGDRYYSGTDVFGSWGQGTLVTVSS
V domain 2: QVQLVQSGGGLVQPGGSLRLSCAASDRTFSEYNADWFRQAPGKEREFVAAITWSGKNTRYADSVKGRFTVSRDNSKNTVYLQMNSLRAEDTAVYYCATDRWWAAGNWDGVDYWGQGTLVTVSS
- Kd (human Trop-2 (His) [10]): 2.75 nM
- Kd (human Trop-2 (His) [11]): 2.44 nM

B7: Trop-2-A-258 (antibody, V domains shown)
VH: QVQLVESGGGLVQAGGSLRLSCAASDRTFSEYNADWFRQAPGKEREFVAAITWSGKNTRYADSVKGRFTVSRDNAKNTVYLQMNSLKPEDTAVYYCATDRWWAAGNWDGVDYWGKGTLVTVSS
- EC50 (human Trop-2 (His) [8]): 0.00557 µg/mL
- Kd (human Trop-2 (His) [9]): 59.2 nM
- EC50 [12]: 0.34 µg/mL
- Kd (human Trop-2 (His) [13]): 64.6 nM

B8: ALGA105S-ADC Trop-2 arm (antibody, V domains shown)
V domain 1: EVQVVESGGGLVQPGGSLRLSCATSGYIFSNSGMGWYRQAPGKQRELVAAISSGGTTHYADSVKGRFTISRDNSKNTVYLQMNSLRAEDTAVYYCNGDRYYSGTDVFGSWGQGTLVTVSS
V domain 2: QVQLVQSGGGLVQPGGSLRLSCAASDRTFSEYNADWFRQAPGKEREFVAAITWSGKNTRYADSVKGRFTVSRDNSKNTVYLQMNSLRAEDTAVYYCATDRWWAAGNWDGVDYWGQGTLVTVSS
modifications: exatecan drug-linker conjugate; full fusion SEQ67
- Kd (human Trop-2 (His) [10]): 2.88 nM

B9: ALGA105X-ADC Trop-2 arm (antibody, V domains shown)
V domain 1: EVQVVESGGGLVQPGGSLRLSCATSGYIFSNSGMGWYRQAPGKQRELVAAISSGGTTHYADSVKGRFTISRDNSKNTVYLQMNSLRAEDTAVYYCNGDRYYSGTDVFGSWGQGTLVTVSS
V domain 2: QVQLVQSGGGLVQPGGSLRLSCAASDRTFSEYNADWFRQAPGKEREFVAAITWSGKNTRYADSVKGRFTVSRDNSKNTVYLQMNSLRAEDTAVYYCATDRWWAAGNWDGVDYWGQGTLVTVSS
modifications: exatecan drug-linker conjugate; full fusion SEQ69
- Kd (human Trop-2 (His) [10]): 3.33 nM

B10: Datopotamab (ALGA106B) (antibody, V domains shown)
VH: QVQLVQSGAEVKKPGASVKVSCKASGYTFTTAGMQWVRQAPGQGLEWMGWINTHSGVPKYAEDFKGRVTISADTSTSTAYLQLSSLKSEDTAVYYCARSGFGSSYWYFDVWGQGTLVTVSS
VL: DIQMTQSPSSLSASVGDRVTITCKASQDVSTAVAWYQQKPGKAPKLLIYSASYRYTGVPSRFSGSGSGTDFTLTISSLQPEDFAVYYCQQHYITPLTFGQGTKLEIKR
- EC50 (human Trop-2 (His) [8]): 0.0507 µg/mL
- Kd (human Trop-2 (His) [9]): 23.5 nM
- EC50 [12]: 0.827 µg/mL
- Kd (human Trop-2 (His) [11]): 22.5 nM
- Kd (human Trop-2 (His) [13]): 28.3 nM
- Kd (human Trop-2 (His) [14]): 15.4 nM

B11: Sacituzumab (ALGA106A) (antibody, V domains shown)
VH: QVQLQQSGSELKKPGASVKVSCKASGYTFTNYGMNWVKQAPGQGLKWMGWINTYTGEPTYTDDFKGRFAFSLDTSVSTAYLQISSLKADDTAVYFCARGGFGSSYWYFDVWGQGSLVTVSS
VL: DIQLTQSPSSLSASVGDRVSITCKASQDVSIAVAWYQQKPGKAPKLLIYSASYRYTGVPDRFSGSGSGTDFTLTISSLQPEDFAVYYCQQHYITPLTFGAGTKVEIKR
- EC50 (human Trop-2 (His) [8]): 0.027 µg/mL
- Kd (human Trop-2 (His) [9]): 0.859 nM
- EC50 [12]: 0.151 µg/mL
- Kd (human Trop-2 (His) [14]): 0.859 nM

B12: ALGA105S PD-L1 arm (antibody, V domains shown)
VH: EVQLVQSGAEVKKPGATVKISCKVSGFNIEDTYIYWVQQAPGKGLEWMGWIDPANYNTKYDPRFQDRVTITVDTSTDTAYMELSSLRSEDTAVYYCARGLRLLMDYWGQGTTVTVSS
VL: DIQLTQSPSFLSASVGDRVTITCKASQNVHTSLAWYQQKPGKSPKLLIYLASNRHTGVPSRFSGSGSGTEFTLTISSLQPEDFATYYCLQHWNYPLTFGQGTKLEIKR
- Kd (hPD-L1(ECD)-His [15]): 0.824 nM
- Kd (hPD-L1(ECD)-His [16]): 0.824 nM

B13: PD-L1-1.168.15-z4-uIgG1K (antibody, V domains shown)
VH: EVQLVQSGAEVKKPGATVKISCKVSGFNIEDTYIYWVQQAPGKGLEWMGWIDPANYNTKYDPRFQDRVTITVDTSTDTAYMELSSLRSEDTAVYYCARGLRLLMDYWGQGTTVTVSS
VL: DIQLTQSPSFLSASVGDRVTITCKASQNVHTSLAWYQQKPGKSPKLLIYLASNRHTGVPSRFSGSGSGTEFTLTISSLQPEDFATYYCLQHWNYPLTFGQGTKLEIKR
- Kd (hPD-L1(ECD)-His [6]): 0.613 nM
- Kd (hPD-L1(ECD)-His [7]): 0.775 nM
- Kd (hPD-L1(ECD)-His [15]): 0.647 nM

B14: ALGA105X PD-L1 arm (antibody, V domains shown)
VH: EVQLVQSGAEVKKPGATVKISCKVSGFNIEDTYIYWVQQAPGKGLEWMGWIDPANYNTKYDPRFQDRVTITVDTSTDTAYMELSSLRSEDTAVYYCARGLRLLMDYWGQGTTVTVSS
VL: DIQLTQSPSFLSASVGDRVTITCKASQNVHTSLAWYQQKPGKSPKLLIYLASNRHTGVPSRFSGSGSGTEFTLTISSLQPEDFATYYCLQHWNYPLTFGQGTKLEIKR
- Kd (hPD-L1(ECD)-His [15]): 0.822 nM
- Kd (hPD-L1(ECD)-His [16]): 0.822 nM

B15: ALGA105X-ADC PD-L1 arm (antibody, V domains shown)
VH: EVQLVQSGAEVKKPGATVKISCKVSGFNIEDTYIYWVQQAPGKGLEWMGWIDPANYNTKYDPRFQDRVTITVDTSTDTAYMELSSLRSEDTAVYYCARGLRLLMDYWGQGTTVTVSS
VL: DIQLTQSPSFLSASVGDRVTITCKASQNVHTSLAWYQQKPGKSPKLLIYLASNRHTGVPSRFSGSGSGTEFTLTISSLQPEDFATYYCLQHWNYPLTFGQGTKLEIKR
modifications: exatecan drug-linker conjugate; full fusion SEQ69:SEQ70
- Kd (hPD-L1(ECD)-His [16]): 0.652 nM

B16: PD-L1-1.168.15-z3-uIgG1K (antibody, V domains shown)
VH: EVQLVQSGAEVKKPGATVKISCKVSGFNIEDTYIYWVQQAPGKGLEWMGWIDPANYNTKYDPRFQDRVTITVDTSTDTAYMELSSLRSEDTAVYYCARGLRLLMDYWGQGTTVTVSS
VL: DIQLTQSPSFLSASVGDRVTITCKASQNVHTSLAWYQQKPGKAPKLLIYLASNRHTGVPSRFSGSGSGTEFTLTISSLQPEDFATYYCLQHWNYPLTFGQGTKLEIKR
- Kd (hPD-L1(ECD)-His [6]): 0.876 nM
- Kd (hPD-L1(ECD)-His [7]): 0.837 nM
